Assay results as given in patent US20100135951A1 (UAB RESEARCH FOUNDATION, published 2010).

Legend:
cIAP1 [1] = molecular target: T1, cIAP1 (human, UniProt Q13490 1-618); assay: TRAIL-R2 co-IP from transfected TRA-8-resistant tumor cells, Western blot with anti-DDX3 and anti-cIAP1
cIAP1 [2] = molecular target: T1, cIAP1; assay: nickel bead pull-down of His-tagged DDX3 from transfected HEK293A cells, anti-cIAP1 Western blot

T1 sequence (Q13490 whole entry): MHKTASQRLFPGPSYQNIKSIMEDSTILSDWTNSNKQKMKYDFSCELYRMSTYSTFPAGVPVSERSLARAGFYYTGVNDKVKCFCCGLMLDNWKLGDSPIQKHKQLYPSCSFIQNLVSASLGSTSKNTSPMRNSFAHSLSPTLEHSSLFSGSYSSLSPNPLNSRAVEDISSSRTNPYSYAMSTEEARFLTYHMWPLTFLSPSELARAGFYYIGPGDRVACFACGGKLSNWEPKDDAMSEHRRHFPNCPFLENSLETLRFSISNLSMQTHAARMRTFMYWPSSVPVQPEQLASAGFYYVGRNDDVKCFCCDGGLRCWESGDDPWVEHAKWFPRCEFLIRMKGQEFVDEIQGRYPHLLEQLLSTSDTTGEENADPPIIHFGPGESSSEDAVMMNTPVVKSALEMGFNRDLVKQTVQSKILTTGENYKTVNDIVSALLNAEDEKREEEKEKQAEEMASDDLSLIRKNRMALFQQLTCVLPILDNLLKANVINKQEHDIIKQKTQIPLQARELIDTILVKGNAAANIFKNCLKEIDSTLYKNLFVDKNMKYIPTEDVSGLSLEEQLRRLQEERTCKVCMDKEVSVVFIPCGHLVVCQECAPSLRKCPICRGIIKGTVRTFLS

B1: DDX3ΔCARD (DDX3Δ151-662) (other)
chain: FSGGNTGINFEKYDDIPVEATGNNCPPHIESFSDVEMGEIIMGNIELTRYTRPTPVQKHAIPIIKEKRDLMACAQTGSGKTAAFLLPILSQIYSDGPGEALRAMKENGRYGRRKQYPISLVLAPTRELAVQIYEEARKFSYRSRVRPCVVYGGADIGQQIRDLERGCHLLVATPGRLVDMMERGKIGLDFCKYLVLDEADRMLDMGFEPQIRRIVEQDTMPPKGVRHTMMFSATFPKEIQMLARDFLDEYIFLAVGRVGSTSENITQKVVWVEESDKRSFLLDLLNATGKDSLTLVFVETKKGADSLEDFLYHEGYACTSIHGDRSQRDREEALHQFRSGKSPILVATAVAARGLDISNVKHVINFDLPSDIEEYVHRIGRTGRVGNLGLATSFFNERNINITKDLLDLLVEAKQEVPSWLENMAYEHHYKGSSRGRSKSSRFSGGFGARDYRQSSGASSSSFSSSRASSSRSGGGGHGSSRGFGGGGYGGFYNSDGYGGNYNSQGVDWWGN
notes: also called CARD-truncated DDX3; dominant negative mutant DDX3 lacking aa 1-150
**Q.** Does B1 bind (cIAP1 [1])?
**A.** no binding

B2: DDX3Δ101-662 (other)
chain: RSDYDGIGSRGDRSGFGKFERGGNSRWCDKSDEDDWSKPLPPSERLEQELFSGGNTGINFEKYDDIPVEATGNNCPPHIESFSDVEMGEIIMGNIELTRYTRPTPVQKHAIPIIKEKRDLMACAQTGSGKTAAFLLPILSQIYSDGPGEALRAMKENGRYGRRKQYPISLVLAPTRELAVQIYEEARKFSYRSRVRPCVVYGGADIGQQIRDLERGCHLLVATPGRLVDMMERGKIGLDFCKYLVLDEADRMLDMGFEPQIRRIVEQDTMPPKGVRHTMMFSATFPKEIQMLARDFLDEYIFLAVGRVGSTSENITQKVVWVEESDKRSFLLDLLNATGKDSLTLVFVETKKGADSLEDFLYHEGYACTSIHGDRSQRDREEALHQFRSGKSPILVATAVAARGLDISNVKHVINFDLPSDIEEYVHRIGRTGRVGNLGLATSFFNERNINITKDLLDLLVEAKQEVPSWLENMAYEHHYKGSSRGRSKSSRFSGGFGARDYRQSSGASSSSFSSSRASSSRSGGGGHGSSRGFGGGGYGGFYNSDGYGGNYNSQGVDWWGN
notes: Transfected into HEK293A cells and pulled down with nickel beads; also called the DDX3 with the first 100 aa deleted; N-terminal aa 1-aa 100 deleted DDX3; not shown: N-terminal 6-His tag of the pcDNA3.1-His vector
**Q.** Does B2 bind (cIAP1 [2])?
**A.** no binding
